Laboratory results as given in publication PMC4703215, “Structural Based Analyses of the JC Virus T-Antigen F258L Mutant Provides Evidence for DNA Dependent Conformational Changes in the C-Termini of Polyomavirus Origin Binding Domains”.

T1: JCV T-ag OBD wt (JC virus (JCV), UniProt P03072 132-261)
T1 sequence: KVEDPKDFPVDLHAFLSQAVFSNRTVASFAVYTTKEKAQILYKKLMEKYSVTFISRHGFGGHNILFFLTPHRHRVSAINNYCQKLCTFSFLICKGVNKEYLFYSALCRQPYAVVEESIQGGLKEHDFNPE


Tests used:
[1] = target: T1, JCV T-ag OBD wt; experiment: ITC; ITC: 10 mM Na phosphate pH 7.0, 50 mM NaCl, 5 mM DTT; anisotropy: 20 mM Hepes pH 7.4, 50 mM NaCl, 0.01% NP40, 0.1 mM DTT, 15 nM probe; temperature not stated; conditions: protein: recombinant; tags: expressed from pGEX1λT (GST vector)
[2] = target: T1, JCV T-ag OBD wt; experiment: fluorescence anisotropy; ITC: 10 mM Na phosphate pH 7.0, 50 mM NaCl, 5 mM DTT; anisotropy: 20 mM Hepes pH 7.4, 50 mM NaCl, 0.01% NP40, 0.1 mM DTT, 15 nM probe; temperature not stated; conditions: protein: recombinant; tags: expressed from pGEX1λT (GST vector); label: 5' fluorescein (six-carbon linker) on one strand

Binder | Kd [1] | Kd [2]
Site II duplex, four GAGGC pentanucleotides (dsDNA) DNA 1: TACAGGAGGCCGAGGCCGCCTCCGCCTCCAAGC DNA 2: GCTTGGAGGCGGAGGCGGCCTCGGCCTCCTGTA | 172 nM | 
TBS probe, single GAGGC (dsDNA) DNA 1: CCGAGGCCATTCTGAGAATTGAGC DNA 2: GCTCAATTCTCAGAATGGCCTCGG |  | 93 ± 21 nM
